Laboratory results taken from PMC10820826, “Interrogation and validation of the interactome of neuronal Munc18-interacting Mint proteins with AlphaFold2” (The Journal of Biological Chemistry, 2023).

What was measured:
Munc18-1-His (rat) = Munc18-1-His (rat) (UniProt P61765)
[1] = molecular target: Munc18-1 + Mint1 (rat | human) (UniProt P61765); experiment: ITC

| Substance | Kd (Munc18-1-His (rat)) [µM] | dH (Munc18-1-His (rat)) [kcal/mol] | stoichiometry N (Munc18-1-His (rat)) | dH [1] [kcal/mol] |
| --- | --- | --- | --- | --- |
| Mint1_14 peptide (261-282 A275A/E276A) | 216 | -57.6 | 1 | – |
| Rat Sx1a (Sx1(1-261)-His) (from UniProt P32851 1-261) (domain or fragment) | – | – | – | -29.7 |
